{
  "source": "paper PMC2760798",
  "about": "(Nucleic Acids Research, 2009)",
  "binders": {"B1": {"name": "C-21 (dsDNA)", "DNA 1": "ATGTGGCCAACAAGGCCTATT", "DNA 2": "AATAGGCCTTGTTGGCCACAT"}, "B2": {"name": "HEX-35 (dsDNA)", "DNA 1": "TCGATCCATGTGGCCAACAAGGCCTATTTGTCGAT", "DNA 2": "ATCGACAAATAGGCCTTGTTGGCCACATGGATCGA"}, "B3": {"name": "SfiI restriction endonuclease D79A mutant (enzyme)", "chain": "MHQDYRELSLDELESVEKQTLRTIVQALQQYSKEAKSIFETTAADSSGEVIVLAEDITQYALEVAETYPINRRFAGFIAYKRVRWLPSPHGLLPQVLLVDAKASTEKNRDTLQRSQLPMDAEFRNTSSGEVVTMEAGVIPHLMLQSANDGVLPAVTTSIFVHFYYRELKDVEGRYRELKSIYVLSLPHARLKQRYNPDPDTSFFGAGKHSPARGEVARIRVYFDRLKEACPWRLQELHYSADSEYTQPRWRDLNDAGHEVTKEFLFLER"}, "B4": {"name": "SfiI restriction endonuclease D100A mutant (enzyme)", "chain": "B3 chain with A79D, D100A"}},
  "key": {"SfiI D79A [1]": {"molecular_target": "T1, SfiI D79A (UniProt O52512 1-269, D79A)", "T1 sequence": "B3 chain", "test": "competition"}, "SfiI D100A [2]": {"molecular_target": "T2, SfiI D100A (UniProt O52512 1-269, D100A)", "T2 sequence": "B3 chain with A79D, D100A", "test": "competition"}, "SfiI endonuclease wt [3]": {"molecular_target": "T3, SfiI endonuclease wt (UniProt O52512 1-269)", "T3 sequence": "B3 chain with A79D", "test": "competition"}, "SfiI D79A [4]": {"molecular_target": "T1, SfiI D79A", "test": "EMSA"}, "SfiI endonuclease wt [5]": {"molecular_target": "T3, SfiI endonuclease wt", "test": "EMSA"}, "SfiI D100A [6]": {"molecular_target": "T2, SfiI D100A", "test": "EMSA"}, "AUC": {"molecular_target": "the molecule itself", "test": "AUC"}},
  "note": "Residue numbers refer to the chain shown, from its start. Numbers in names are those of the source.",
  "data": [
    {"binder": "B1", "values": [
      {"measurement": "binding result", "setting": "SfiI D79A [1]", "value": "binds"},
      {"measurement": "binding result", "setting": "SfiI D100A [2]", "value": "binds"},
      {"measurement": "binding result", "setting": "SfiI endonuclease wt [3]", "value": "binds"}
    ]},
    {"binder": "B2", "values": [
      {"measurement": "Kd", "setting": "SfiI D79A [4]", "value": "< 10", "unit": "nM"},
      {"measurement": "Kd", "setting": "SfiI endonuclease wt [5]", "value": "< 10", "unit": "nM"},
      {"measurement": "Kd", "setting": "SfiI D100A [6]", "value": "< 10", "unit": "nM"}
    ]},
    {"binder": "B3", "values": [
      {"measurement": "stoichiometry N", "setting": "AUC", "value": 4}
    ]},
    {"binder": "B4", "values": [
      {"measurement": "stoichiometry N", "setting": "AUC", "value": 4}
    ]}
  ]
}
